Laboratory results reported in patent US20150342943A1, “METHODS OF TREATING LIVER DISEASE” (Gilead Sciences, Inc., priority 2014, published 2015).

B1: AB0023: murine anti-LOXL2 antibody, heavy chain variable region SEQ ID NO: 15, light chain variable region SEQ ID NO: 16 (antibody, V domains shown)
VH: MEWSRVFIFLLSVTAGVHSQVQLQQSGAELVRPGTSVKVSCKASGYAFTYYLIEWVKQRPGQGLEWIGVINPGSGGTNYNEKFKGKATLTADKSSSTAYMQLSSLTSDDSAVYFCARNWMNFDYWGQGTTLTVSS
VL: MRCLAEFLGLLVLWIPGAIGDIVMTQAAPSVSVTPGESVSISCRSSKSLLHSNGNTYLYWFLQRPGQSPQFLIYRMSNLASGVPDRFSGSGSGTAFTLRISRVEAEDVGVYYCMQHLEYPYTFGGGTKLEIK
modifications: anti-LOXL2 antibody AB0023 heavy chain variable region; anti-LOXL2 antibody AB0023 light chain variable region

Tests used:
[1] = test system: primary human HSCs; assay: α-SMA Assay in TGF-β-stimulated hepatic stellate cells; assay type: cell-based; details: 24 h, read-out: α-SMA Assay EC50
Method: For quantification of α-SMA protein expression, HSC's were plated at a density of 10,000 cells/well in collagen coated 96-well plates (BD-Biosystems). […] HSCs were fixed in 4% PFA, permeabilized in 0.02% Triton-X-100, blocked for 30 min. and stained with an anti-α-SMA specific antibody (Sigma) and a flourescently labeled secondary antibody (Invitrogen). α-SMA expression was quantified on a fluorescent plate reader.

[2] = test system: HSCs; assay: Quantitative RT-PCR of TGF-β1-induced gene transcription in HSCs; assay type: cell-based, human; details: pre-treated HSCs, TGF-β1 5 ng/ml for 48 hrs
Method: For gene expression assays, RNA was isolated using commercially available kit (Qiagen Midikit), converted to cDNA (Retroscript Kit, Ambion) and tested for expression of genes involved in fibrosis with human probes on ABI 7300 (Applied Biosystems). All assays were performed in triplicate.
Quantitative RT-PCR was used to determine the effects of compounds to inhibit TGF-β1-induced gene transcription of αSMA, COL1α1, […], and lumican.

[3] = test system: primary human HSCs; assay: Collagen Assay (Sircol) in TGF-β-stimulated hepatic stellate cells; details: read-out: Collagen Assay EC50
Method: Collagen synthesis, α-SMA (smooth muscle actin) expression, and changes in transcript expression were measured in response to stimulation from ROS (reactive oxygen species) and TGF-β.
Commercially available primary human HSCs (Sciencell) were plated at a density of 250,000 cells/well on 12-well plates (Corning). HSCs were co-stimulated with 5 ng/mL TGF-β+/− ASK1 inhibitor compounds. Collagen production was assessed by Sircol Assay where extracellular collagen was digested with pepsin, followed by acid extraction, neutralization, and colometric quantification using the Sircol assay kit according to the manufacturer's protocols (BioColor).

[4] = test system: male C57BL/6 mice; assay: Interventional NASH model (treatment from day 240 of high fat, high cholesterol, high sugar diet); assay type: in vivo
Method: Liver homogenate (1.5 mL) was transferred to 1.5 mL Eppindorf tubes and centrifuged at 14,000 rpm for 10 min. Supernate was transferred to 96-deep well plate and diluted 1:1 with 4 M HCl. HYP levels were quantified using a commercially available hydroxyproline assay (Quickzyme Biosciences).
Commercially available high fat, high cholesterol, high sugar diet was administered continuously to 12 week old male C57BL/6 mice for 320 days. […] Animal cohorts (n=15) were sacrificed after 80 days of treatment. Collagen synthesis and hydroxyproline (HYP) were measured using D2O labeling. Second harmonic imaging was used to quantitate collagen morphometry.
Commercially available high fat, high cholesterol, high sugar diet was administered continuously to 12 week old male C57BL/6 mice for 320 days. […] At 80 days of treatment, collagen synthesis and HYP levels in each group (n=15) were determined using D2O labeling. […] Liver homogenate (1.5 mL) was centrifuged at 14,000×rpm for 10 min and the resulting supernate was d diluted 1:1 with 4 M HCl. HYP levels were quantified using a commercially available hydroxyproline assay (Quickzyme Biosciences).
In addition, immunohistochemistry and immunoblot analysis were used to characterize the levels of phospho-p38 (p-p38), phospho-JNK1 (p-JNK1), and phospho-MKK4 (p-MKK4) proteins.

[5] = test system: Mdr2^−/− BALB/c; assay: Interventional PSC model; assay type: in vivo, mice
Method: Control groups received treatment with either vehicle or an unrelated isotype-matched control IgG (i.e. a murine IgG1). Portal venous pressure
(PVP) was measured invasively by direct cannulation of the portal vein with a micro-tip pressure monitor at the end of the study. Liver fibrosis was evaluated by histology, biochemical determination of collagen and analysis of profibrogenic gene expression by qRT-PCR.

[6] = test system: TAA-induced liver fibrosis; assay: TAA-induced liver fibrosis; details: in vivo

Row | Molecule | EC50 [1] | TGF-β1-induced responses in RNA levels of αSMA, COL1α1, TIMP1, and lumican [2] | EC50 [3] | synthesis rates of extracellular matrix proteins (Col1a1, Col1a3, and Col1a5) ([4]; Example 3) | blood glucose and insulin levels ([4]; additional studies) | relative hydroxyproline levels ([4]; additional studies, FIG. 30) | reduction of hepatic collagen deposition (hydroxyproline levels) ([5]; 6 weeks treatment, vs control group) | portal venous pressure (PVP) ([5]; end of study, control 10.1±0.2) | fibrosis progression in Mdr2^−/− mice ([5]; mouse, in vivo) | TAA-induced fibrosis progression [6]
1 | Cc1cc(F)c(C(=O)Nc2cccc(-c3nncn3C(C)C)n2)cc1-n1cnc(C2CC2)c1 [Compound 3] | 18.9 nM | blocked or inhibited | 11.6 nM |  |  |  |  |  |  | 
2 | B1 |  |  |  | affected | did not affect | did not result in a decrease | 38% | 8.36±0.23 mmHg | blocked | blocked
